Results on seven molecules are retold here after patent US20240091321A1 (AMICUS THERAPEUTICS, published 2024).

For assay [1], the target named is T1, CI-MPR receptor.
T1 construct: also called IGF2/CI-MPR; IGF2/Mannose-6-phosphate receptor
As to the kind of experiment: CI-MPR plate-binding assay in presence of M6P, bound PPT1 by activity assay. On the procedure:
(§1) In the binding assay, a plate was first coated with CI-MPR. Next, a sample containing the enzyme of interest was incubated on the plate. The plate was washed so that only substances bound to CI-MPR remain on the plate. The amount of the enzyme of interest bound to the plate was determined by enzyme assay or by mass spec. The binding assay was performed at a range of concentrations of the enzyme of interest in order to obtain a binding curve.
CI-MPR plate-binding assay performed as previously described, then amount bound was determined by PPT1 activity assay.

Assay [2] has as its target T1, CI-MPR receptor. As to the kind of experiment: CIMPR plate binding assay, bound NAGLU activity (4MU released).
The target of assay [3] is T1, CI-MPR receptor. As to the kind of experiment: CI-MPR-coated plate binding assay, conditioned media of HEK 293 cells, bound TPP1 activity. On the procedure: as §1
Assay [4] addresses T1, CI-MPR receptor. As to the kind of experiment: CIMPR binding assay, PPT1 conditioned media, dilution starting at 50 nM, bound PPT1 activity; the table prints no units, units of the axes.
Assay [5] concerns the target T1, CI-MPR receptor. As to the kind of experiment: CIMPR binding assay, PPT1 conditioned media, curves starting at 25 nM, bound PPT1 activity; the table prints no units, units of the axes.

B1: PPT1-33 (wt-PPT1-vIGF2-8Q) (enzyme)
chain: DPPAPLPLVIWHGMGDSCCNPLSMGAIKKMVEKKIPGIYVLSLEIGKTLMEDVENSFFLNVNSQVTTVCQALAKDPKLQQGYNAMGFSQGGQFLRAVAQRCPSPPMINLISVGGQHQGVFGLPRCPGESSHICDFIRKTLNAGAYSKVVQERLVQAEYWHDPIKEDVYRNHSIFLADINQERGINESYKKNLMALKKFVMVKFLNDSIVDPVDSEWFGFYRSGQAKETIPLQETSLYTQDRLGLKEMDNAGQLVFLATEGDHLQLSEEWFYAHIIPFLGRPRAVPTQGGSGSGSTSSSRTLCGGELVDTLQFVCGDRGFLFSRPASRVSRRSRGIVEECCFRECDLALLETYCATPARSE
notes: Whole entry; it includes the native PPT1 signal peptide
As to B1, in the assay with CI-MPR receptor [1], the Bmax came to 9.19 and the “Relative Kd” value amounted to 0.143.

B2: WT NAGLU (enzyme)
enzyme: DEAREAAAVRALVARLLGPGPAADFSVSVERALAAKPGLDTYSLGGGGAARVRVRGSTGVAAAAGLHRYLRDFCGCHVAWSGSQLRLPRPLPAVPGELTEATPNRYRYYQNVCTQSYSFVWWDWARWEREIDWMALNGINLALAWSGQEAIWQRVYLALGLTQAEINEFFTGPAFLAWGRMGNLHTWDGPLPPSWHIKQLYLQHRVLDQMRSFGMTPVLPAFAGHVPEAVTRVFPQVNVTKMGSWGHFNCSYSCSFLLAPEDPIFPIIGSLFLRELIKEFGTDHIYGADTFNEMQPPSSEPSYLAAATTAVYEAMTAVDTEAVWLLQGWLFQHQPQFWGPAQIRAVLGAVPRGRLLVLDLFAESQPVYTRTASFQGQPFIWCMLHNFGGNHGLFGALEAVNGGPEAARLFPNSTMVGTGMAPEGISQNEVVYSLMAELGWRKDPVPDLAAWVTSFAARRYGVSHPDAGAAWRLLLRSVYNCSGEACRGHNRSPLVRRPSLQMNTSIWYNRSDVFEAWRLLLTSAPSLATSPAFRYDLLDLTRQAVQELVSLYYEEARSAYLSKELASLLRAGGVLAYELLPALDEVLASDSRFLLGSWLEQARAAAVSEAEADFYEQNSRYQLTLWGPEGNILDYANKQLAGLVANYYTPRWRLFLEALVDSVAQGIPFQQHQFDKNVFQLEQAFVLSKQRYPSQPRGDTVDLAKKIFLKYYPRWVAGSW
notes: also called untagged NAGLU
As usually defined, the Kd is the constant that tells how readily two partners part at equilibrium. Take B2: the Kd with CI-MPR receptor [2] stood at 325 nM.

B3: Natural hTTP1 (enzyme)
enzyme: SYSPEPDQRRTLPPGWVSLGRADPEEELSLTFALRQQNVERLSELVQAVSDPSSPQYGKYLTLENVADLVRPSPLTLHTVQKWLLAAGAQKCHSVITQDFLTCWLSIRQAELLLPGAEFHHYVGGPTETHVVRSPHPYQLPQALAPHVDFVGGLHRFPPTSSLRQRPEPQVTGTVGLHLGVTPSVIRKRYNLTSQDVGSGTSNNSQACAQFLEQYFHDSDLAQFMRLFGGNFAHQASVARVVGQQGRGRAGIEASLDVQYLMSAGANISTWVYSSPGRHEGQEPFLQWLMLLSNESALPHVHTVSYGDDEDSLSSAYIQRVNTELMKAAARGLTLLFASGDSGAGCWSVSGRHQFRPTFPASSPYVTTVGGTSFQEPFLITNEIVDYISGGGFSNVFPRPSYQEEAVTKFLSSSPHLPPSSYFNASGRAYPDVAALSDGYWVVSNRVPIPWVSGTSASTPVFGGILSLINEHRILSGRPPLGFLNPRLYQQHGAGLFDVTRGCHESCLDEEVEGQGFCSGPGWDPVTGWGTPNFPALLKTLLNP
notes: also called WT TPP1; TPP1 wildtype
Broadly, the EC50 (read off the curve) is the concentration that produces a half-maximal response. Regarding B3, the “EC50 (read off the curve)” value in the assay with CI-MPR receptor [3] was approximately 0.4 nM.

B4: PPT1-104 (enzyme)
fusion protein: DPPAPLPLVIWHGMGDSCCNPLSMGAIKKMVEKKIPGIYVLSLEIGKTLMEDVENSFFLNVNSQVTTVCQALAKDPKLQQGYNAMGFSQGGQFLRAVAQRCPSPPMINLISVGGQHQGVFGLPRCPGESSHICDFIRKTLNAGAYSKVVQERLVQAEYWHDPIKEDVYRNHSIFLADINQERGINESYKKNLMALKKFVMVKFLNDSIVDPVDSEWFGFYRSGQAKETIPLQETSLYTQDRLGLKEMDNAGQLVFLATEGDHLQLSEEWFYAHIIPFLGRPRAVPTQGGSGSGSTSSSRTLCGGELVDTLQFVCGDRGFLFSRGGGGSRGILEECCFRECDLALLETYCATPARSE
Take B4: the results for the Kd with CI-MPR receptor [4] and in the assay with CI-MPR receptor [5] were 3.41 nM and 3.87 nM, respectively.

B5: PPT1-32 (wt-PPT1-vIGF2-32) (enzyme)
chain: DPPAPLPLVIWHGMGDSCCNPLSMGAIKKMVEKKIPGIYVLSLEIGKTLMEDVENSFFLNVNSQVTTVCQALAKDPKLQQGYNAMGFSQGGQFLRAVAQRCPSPPMINLISVGGQHQGVFGLPRCPGESSHICDFIRKTLNAGAYSKVVQERLVQAEYWHDPIKEDVYRNHSIFLADINQERGINESYKKNLMALKKFVMVKFLNDSIVDPVDSEWFGFYRSGQAKETIPLQETSLYTQDRLGLKEMDNAGQLVFLATEGDHLQLSEEWFYAHIIPFLGRPRAVPTQGGSGSGSTSSSRTLCGGELVDTLQFVCGDRGFLFSRGGGGSRGILEECCFRECDLALLETYCATPARSE
notes: as for B1
Regarding B5, in the assay with CI-MPR receptor [1], the Bmax was determined as 6.05 and the “Relative Kd” value turned out to be 0.121.

B6: PPT1-29 (BiP2aa-vIGF2-PPT1) (enzyme)
chain: MKLSLVAAMLLLLWVALLLLSAARAAASRTLCGGELVDTLQFVCGDRGFLFSRPASRVSRRSRGIVEECCFRSCDLALLETYCATPARSEGGGGSGGGGSRPRAVPTQDPPAPLPLVIWHGMGDSCCNPLSMGAIKKMVEKKIPGIYVLSLEIGKTLMEDVENSFFLNVNSQVTTVCQALAKDPKLQQGYNAMGFSQGGQFLRAVAQRCPSPPMINLISVGGQHQGVFGLPRCPGESSHICDFIRKTLNAGAYSKVVQERLVQAEYWHDPIKEDVYRNHSIFLADINQERGINESYKKNLMALKKFVMVKFLNDSIVDPVDSEWFGFYRSGQAKETIPLQETSLYTQDRLGLKEMDNAGQLVFLATEGDHLQLSEEWFYAHIIPFLG
notes: Whole entry; it includes the modified BiP signal peptide
Regarding B6, in the assay with CI-MPR receptor [1], the Bmax turned out to be 8.98 and the “Relative Kd” value was found to be 0.107.

B7: PPT1-101 (enzyme)
fusion protein: MKLSLVAAMLLLLWVALLLLSAARAAASRTLCGGELVDTLQFVCGDRGFLFSRGGGGSRGILEECCFRDCDLALLETYCATPARSEGGGGSGGGGSRPRAVPTQDPPAPLPLVIWHGMGDSCCNPLSMGAIKKMVEKKIPGIYVLSLEIGKTLMEDVENSFFLNVNSQVTTVCQALAKDPKLQQGYNAMGFSQGGQFLRAVAQRCPSPPMINLISVGGQHQGVFGLPRCPGESSHICDFIRKTLNAGAYSKVVQERLVQAEYWHDPIKEDVYRNHSIFLADINQERGINESYKKNLMALKKFVMVKFLNDSIVDPVDSEWFGFYRSGQAKETIPLQETSLYTQDRLGLKEMDNAGQLVFLATEGDHLQLSEEWFYAHIIPFLG
B7: the Kd was found to be 4.12 nM with CI-MPR receptor [4] and 4.57 nM with CI-MPR receptor [5].
